Tests used:
DR_0644 = DR_0644 (uncharacterized protein, UniProt Q9RWM2) (D. radiodurans); assay: cryo-EM structure; single-particle cryo-EM of SlpA purified from D. radiodurans, in 20 mM Hepes/NaOH pH 7.5, 150 mM NaCl, 0.02% DDM; 4.45 mg/mL; C3 symmetry; global resolution 3.25 Å
[1] = target: the molecule itself; assay: as above

| stoichiometry N (DR_0644) | Molecule | stoichiometry N [1] |
| --- | --- | --- |
| 3 | DR_0644 (uncharacterized protein, UniProt Q9RWM2) (natural protein) |  |
|  | SlpA (Deinococcus radiodurans outer membrane protein, UniProtKB Q9RRB6) (natural protein, D. radiodurans, UniProt Q9RRB6 23-1167, looked up, SlpA, D. radiodurans, UniProtKB Q9RRB6; wild-type protein purified from the bacterium; The map is well resolved from residue 215 onwards; Native, untagged protein in DDM micelles; it models the periplasmic segment from residue 20; also called SlpA protein complex; SlpA trimer; source: purified from D. radiodurans (ATCC BAA816): lysozyme treatment, DDM extraction, HiTrap-Q, Superose 6 Increase) APVSAPQVPALTDVPAGHWAKDAIDRLVSRGVILGYPDGTFRGTQNLTRYEAAIIIARLLDQMRDGETPAGMTAEDMTALQNAIQELAADLAALGVRVSDLEANAVSKDDFARLEARIEEVAAAGGEQGATEALQGQIDDLTARVDEYDALRADVDDNASSIAALNDLTVLLNQDILDLQDRVSAVEAAQADFVQRSDFDALGGRVTTVETRVETVNNSLTGRIAALERNAFSVKPSLTIGYSVSRTSRNFDVDRLFPLNADGTVANNAFTSGGIDTDTGAQRRDFGDFGNASDPVVAGAAGLYGFADGVSYTVYFTDGSTATFDGLNPADYKVPTGKVIDTTKGRNGFGFNNLARYKEGSTDIGISLGFDTSGQFSQVTSGTGGSLFSTAGRLQVNQIDLNFGLVTGLPSDAYVDTNGNGKKDDGEATGRGTYLGSGGTAAILRDPAGNVYRPVFFRFKNATTQFSVGNNPVIVTLGQQQKFYFSDYVFDNNYDGRGDGFTVTVDGSNVPVIGAWKPQIKGVYGSRSGLDGTAEAGYGVYYRGVRAQITPVGTLTAGIHYAQEGRDMFGAAQNTTSTPSDVTTYGADLHGKAFGVELHSEYATSRVRPNTANAAVQTSNAFYARVATRKDNLAFDLNTPAAKFGNDTFGVSLYDLNYRKIDAGYNNVAGISEYGYGSYSRTSAQNIAYNPDTGVTAPFANLDRQAYTDANNDGTSDRNADGTVVATNTKIGQMGFGVKAAANLGPVAIGGYYDTSTGANGDNANRMTEAGGSAKVAYSIFSLRGTYNTLDSNRPQIYRDAAGTQIIGDAKVRRYAVQADVTPGLGLFVGAYYRDVNVNGVRSTTDRGLLGRGYLASSFEPGVGNNAYRTGLRCADNNFGTGTRDIDGVGGVLNPAVNLDQSRTATCFTSYGVEAGHAGDNANALVKDLFFRVGYSRVYVPTTATATTGDFSGSVTYGDARYDRKVGVANVRLAGSFSTTNTQLDSRPAGTRGAVGLIVRTDPLENVPFRPQFNGQVGYYTADNRVAAGNYNANATKYGAGVVLNDFLLPQTKIGVRYDGYMAQNRQYTPFDGDGTQGYFSDANNNRRTNLNGVYVEGAYQDLIFSYGTYTLSQKDLNGVEYGSGINNGQPARGQTFKISYKVNF | 3 |
